The values that follow come from article PMC5818494, “Specific Recognition of Arginine Methylated Histone Tails by JMJD5 and JMJD7” (Scientific Reports, 2018).

pKd: −log10 of the molar value. Read-outs that look alike come from different tables or passages of the source.

Assay [1] has as its target calf bulk histone. The assay can be described thus: SPR; Biacore; 10 μg/ml calf bulk histone in 50 mM sodium acetate pH 5.0 coated onto a CM5 chip; enzyme injected at different concentrations; room temperature; non-linear binding kinetics, ranges estimated.
Assay [2] addresses calf bulk histone. The description is as above. This is another data set of the same source.
Assay [3] addresses histone H3 peptide pH3K4(me2) N-terminal tail peptide (Homo sapiens) (UniProt P68431). Conditions: cited from earlier work.
Assay [4] deals with histone H3 peptide (pH3) N-terminal tail peptide (Homo sapiens) (UniProt P68431). The assay can be described thus: fluorescence polarization. As to conditions: cited from earlier work. Background: In fluorescence polarisation assays a small probe gives low polarisation when free and higher when bound to something large.
Assay [5] addresses histone H3 peptide pH3R2me2a N-terminal tail peptide (Homo sapiens) (UniProt P68431). Description: fluorescence polarization. Conditions: cited from earlier work.

Usually pKd stands for −log10 of the Kd, conventionally taken in molar units.

Chain of c-JMJD5 catalytic core (Q8N371 183-416): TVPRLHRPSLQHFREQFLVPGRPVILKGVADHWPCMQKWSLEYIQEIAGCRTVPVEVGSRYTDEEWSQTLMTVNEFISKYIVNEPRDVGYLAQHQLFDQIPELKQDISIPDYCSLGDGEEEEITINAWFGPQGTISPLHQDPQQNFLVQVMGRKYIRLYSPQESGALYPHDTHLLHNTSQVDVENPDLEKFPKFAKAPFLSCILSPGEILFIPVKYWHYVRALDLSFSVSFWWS
Chain of JMJD7 (mouse), JMJD7 protein alone generated from GST-JMJD7 fusion protein (P0C872 whole entry, the tested form may be a part): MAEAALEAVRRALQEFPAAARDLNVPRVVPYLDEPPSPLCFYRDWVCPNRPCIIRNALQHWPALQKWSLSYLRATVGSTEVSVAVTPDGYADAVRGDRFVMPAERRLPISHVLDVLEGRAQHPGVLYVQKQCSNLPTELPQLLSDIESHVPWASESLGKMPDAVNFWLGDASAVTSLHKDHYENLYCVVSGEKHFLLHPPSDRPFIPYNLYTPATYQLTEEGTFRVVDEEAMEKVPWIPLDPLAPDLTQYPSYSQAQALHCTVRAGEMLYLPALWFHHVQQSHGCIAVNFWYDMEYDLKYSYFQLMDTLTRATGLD
Chain of c-JMJD5 (JMJD5 residues 183–416, lacking the N-terminal domain) (Q8N371 183-416): as the sequence (Q8N371 183-416) above

With “JMJD7 (mouse), JMJD7 protein alone generated from GST-JMJD7 fusion protein (from UniProt P0C872 1-316) (enzyme)”, the pKd was 4.30 to 6.00 with calf bulk histone [1] and 5.00 to 6.00 with calf bulk histone [2].
The like results for “c-JMJD5 (JMJD5 residues 183–416, lacking the N-terminal domain) (from UniProt Q8N371 183-416) (domain or fragment)” were, in that order, 4.30 to 6.00 and 5.00 to 6.00.
Turning to “c-JMJD5 catalytic core (from UniProt Q8N371)”, the figures for the pKd in assay [3], in assay [4] and in assay [5] were 5.40, 5.15 and 6.95, respectively.
